Data taken from paper doi:10.1101/2023.01.21.525003.

Experiments:
Experiment in all cases: FRET or BRET
[1] = target: Gluc-LHCGR^Glu354Lys (human) (UniProt P22888)
[2] = target: Gluc-LHCGR^Cys131Arg (human) (UniProt P22888)
[3] = target: Gluc-LHCGR^Ile152Thr (human) (UniProt P22888)
[4] = target: Gluc-LHCGRv4 (Gaussia luciferase fused to the N-terminus of the luteinizing hormone/chorionic gonadotropin receptor) (human) (UniProt P22888)
Gluc-LHCGRv4 (Gaussia luciferase fused to the N-terminus of the luteinizing hormone/chorionic gonadotropin receptor) (human), sequence (P22888 27-699): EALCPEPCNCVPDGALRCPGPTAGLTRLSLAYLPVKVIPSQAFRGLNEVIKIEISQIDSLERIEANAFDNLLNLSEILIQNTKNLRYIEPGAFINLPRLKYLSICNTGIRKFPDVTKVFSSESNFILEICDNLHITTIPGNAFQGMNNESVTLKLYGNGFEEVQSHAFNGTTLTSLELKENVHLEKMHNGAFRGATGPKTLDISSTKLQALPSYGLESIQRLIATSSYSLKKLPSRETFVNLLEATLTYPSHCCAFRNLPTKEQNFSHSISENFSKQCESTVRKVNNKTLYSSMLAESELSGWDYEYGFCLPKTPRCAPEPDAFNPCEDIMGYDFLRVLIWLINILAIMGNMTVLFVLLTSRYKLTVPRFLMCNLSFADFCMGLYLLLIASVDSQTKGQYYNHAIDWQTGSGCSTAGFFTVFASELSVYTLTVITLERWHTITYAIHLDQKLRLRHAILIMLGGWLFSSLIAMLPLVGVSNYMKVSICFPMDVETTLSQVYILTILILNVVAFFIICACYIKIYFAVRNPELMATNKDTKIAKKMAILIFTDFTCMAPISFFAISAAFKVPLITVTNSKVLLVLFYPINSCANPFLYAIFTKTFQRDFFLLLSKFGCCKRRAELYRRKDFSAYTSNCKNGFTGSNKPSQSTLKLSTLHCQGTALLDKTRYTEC

Gluc-LHCGR^Ile152Thr (human), sequence (P22888 27-699 I152T): as the sequence (P22888 27-699) above, with I126T counted along it
Gluc-LHCGR^Cys131Arg (human), sequence (P22888 27-699 C131R): as the sequence (P22888 27-699) above, with C105R counted along it
Gluc-LHCGR^Glu354Lys (human), sequence (P22888 27-699 E354K): as the sequence (P22888 27-699) above, with E328K counted along it

acceptor:donor (BRET) ratio, fold lower than Gluc-LHCGR^WT [1] | acceptor:donor (BRET) ratio, fold lower than Gluc-LHCGR^WT [2] | acceptor:donor (BRET) ratio, fold lower than Gluc-LHCGR^WT [3] | acceptor:donor (BRET) ratio, fold lower than equimolar yhCG^WT-eGFP [4] | Substance
2.6 fold lower | 5.5 fold lower | 5.1 fold lower |  | yhCG^WT-eGFP (yoked human chorionic gonadotropin fused to eGFP) (ligand)
 |  |  | 4.6 fold lower | yhCG^Glu80Ala-eGFP (yoked human chorionic gonadotropin with CGA Glu80Ala, fused to eGFP) (ligand)
